Legend:
Test in all cases: Kd (EC50 corrected by depletion factor)
[1] = biological target: T1, ZGPAT (UniProt Q8N5A5)
T1 sequence: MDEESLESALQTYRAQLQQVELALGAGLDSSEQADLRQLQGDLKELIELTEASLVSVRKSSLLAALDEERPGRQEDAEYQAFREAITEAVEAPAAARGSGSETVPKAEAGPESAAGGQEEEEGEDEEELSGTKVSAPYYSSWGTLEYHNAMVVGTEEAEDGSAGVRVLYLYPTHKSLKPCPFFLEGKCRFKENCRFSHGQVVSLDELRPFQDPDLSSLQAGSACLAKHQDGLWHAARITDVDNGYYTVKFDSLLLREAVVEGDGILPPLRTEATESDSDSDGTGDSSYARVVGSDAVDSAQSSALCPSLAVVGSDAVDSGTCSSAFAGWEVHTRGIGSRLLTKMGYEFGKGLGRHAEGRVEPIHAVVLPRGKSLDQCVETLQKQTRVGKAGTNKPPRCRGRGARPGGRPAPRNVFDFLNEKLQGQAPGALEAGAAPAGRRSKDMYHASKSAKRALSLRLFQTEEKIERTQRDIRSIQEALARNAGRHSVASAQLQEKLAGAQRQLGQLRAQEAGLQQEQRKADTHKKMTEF
In short: (§1)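 Over three biological replicates and two independent experiments, proteins captured on NHS-Sepharose beads carrying 5′-amino-C6 RNA oligos were quantified by label-free LC-MS/MS and normalised to the control. Capture lasted 30 min at 4°C and followed a 1 h pre-incubation at 4°C of HEK293-FT lysate (2.5 mg protein/well) with the same oligos in free form (0 nM to 30 μM). EC50 was taken from a four-parameter log-logistic fit, and Kd was EC50 corrected by a protein-dependent depletion factor.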

[2] = biological target: IGF2BP2 (UniProt Q9Y6M1)
In short: as §1

[3] = biological target: RPS25 (UniProt P62851)
In short: as §1

[4] = biological target: T2, DHX30 (UniProt Q7L2E3)
T2 sequence: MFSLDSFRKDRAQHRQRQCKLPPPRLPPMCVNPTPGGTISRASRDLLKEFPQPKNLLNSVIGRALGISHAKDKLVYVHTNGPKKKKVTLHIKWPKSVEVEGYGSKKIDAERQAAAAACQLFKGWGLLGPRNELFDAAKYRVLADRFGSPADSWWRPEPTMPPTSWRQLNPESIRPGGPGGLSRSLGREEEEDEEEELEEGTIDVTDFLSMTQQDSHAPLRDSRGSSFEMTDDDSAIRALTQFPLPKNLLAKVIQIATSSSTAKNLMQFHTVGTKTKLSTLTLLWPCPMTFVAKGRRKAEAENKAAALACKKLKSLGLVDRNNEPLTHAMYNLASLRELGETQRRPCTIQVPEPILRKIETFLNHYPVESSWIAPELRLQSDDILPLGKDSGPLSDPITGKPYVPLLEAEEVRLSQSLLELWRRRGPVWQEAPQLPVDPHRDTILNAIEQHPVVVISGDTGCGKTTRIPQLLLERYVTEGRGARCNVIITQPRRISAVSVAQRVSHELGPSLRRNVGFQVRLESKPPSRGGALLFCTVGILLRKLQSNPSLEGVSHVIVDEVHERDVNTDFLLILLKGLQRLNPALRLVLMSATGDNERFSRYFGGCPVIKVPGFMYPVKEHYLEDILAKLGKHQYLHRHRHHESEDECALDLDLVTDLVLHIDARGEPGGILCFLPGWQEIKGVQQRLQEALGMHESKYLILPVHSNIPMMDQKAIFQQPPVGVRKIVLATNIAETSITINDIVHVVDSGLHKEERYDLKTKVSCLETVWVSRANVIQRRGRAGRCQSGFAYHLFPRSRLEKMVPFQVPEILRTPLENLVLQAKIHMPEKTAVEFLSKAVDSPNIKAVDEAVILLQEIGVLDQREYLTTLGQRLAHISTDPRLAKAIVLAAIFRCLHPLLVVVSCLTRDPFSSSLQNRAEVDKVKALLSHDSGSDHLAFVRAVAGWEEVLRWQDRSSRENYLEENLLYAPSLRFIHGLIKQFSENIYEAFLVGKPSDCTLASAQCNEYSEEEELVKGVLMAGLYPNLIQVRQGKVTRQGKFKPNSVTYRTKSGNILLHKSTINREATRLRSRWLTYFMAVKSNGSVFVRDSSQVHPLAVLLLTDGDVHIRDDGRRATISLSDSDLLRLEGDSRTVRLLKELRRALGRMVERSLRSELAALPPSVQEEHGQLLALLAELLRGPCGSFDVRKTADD
In short: as §1

[5] = biological target: TARDBP (UniProt Q13148)
In short: as §1

[6] = biological target: PTCD3 (UniProt Q96EY7)
In short: as §1

[7] = biological target: MRPS18B (UniProt Q9Y676)
In short: as §1

[8] = biological target: TSN (UniProt Q15631)
In short: as §1

Chain of TARDBP (Q13148 whole entry): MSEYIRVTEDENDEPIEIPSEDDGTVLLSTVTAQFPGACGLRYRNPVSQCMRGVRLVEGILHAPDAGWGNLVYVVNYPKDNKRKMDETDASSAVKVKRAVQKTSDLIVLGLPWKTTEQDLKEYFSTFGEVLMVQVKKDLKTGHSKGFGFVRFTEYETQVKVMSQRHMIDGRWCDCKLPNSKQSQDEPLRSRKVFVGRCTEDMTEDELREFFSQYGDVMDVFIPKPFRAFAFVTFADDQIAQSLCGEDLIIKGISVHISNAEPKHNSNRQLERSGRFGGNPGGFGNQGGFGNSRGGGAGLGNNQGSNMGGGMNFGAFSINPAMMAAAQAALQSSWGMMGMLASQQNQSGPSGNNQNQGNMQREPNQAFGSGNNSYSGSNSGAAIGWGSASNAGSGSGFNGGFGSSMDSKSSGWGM
Chain of TSN (Q15631 whole entry): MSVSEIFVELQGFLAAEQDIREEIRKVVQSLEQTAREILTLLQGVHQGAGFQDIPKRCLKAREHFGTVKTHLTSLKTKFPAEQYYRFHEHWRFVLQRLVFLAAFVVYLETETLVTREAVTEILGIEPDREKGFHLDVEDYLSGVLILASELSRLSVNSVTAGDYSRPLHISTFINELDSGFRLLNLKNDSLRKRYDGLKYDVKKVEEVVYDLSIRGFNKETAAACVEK
Chain of IGF2BP2 (Q9Y6M1 whole entry): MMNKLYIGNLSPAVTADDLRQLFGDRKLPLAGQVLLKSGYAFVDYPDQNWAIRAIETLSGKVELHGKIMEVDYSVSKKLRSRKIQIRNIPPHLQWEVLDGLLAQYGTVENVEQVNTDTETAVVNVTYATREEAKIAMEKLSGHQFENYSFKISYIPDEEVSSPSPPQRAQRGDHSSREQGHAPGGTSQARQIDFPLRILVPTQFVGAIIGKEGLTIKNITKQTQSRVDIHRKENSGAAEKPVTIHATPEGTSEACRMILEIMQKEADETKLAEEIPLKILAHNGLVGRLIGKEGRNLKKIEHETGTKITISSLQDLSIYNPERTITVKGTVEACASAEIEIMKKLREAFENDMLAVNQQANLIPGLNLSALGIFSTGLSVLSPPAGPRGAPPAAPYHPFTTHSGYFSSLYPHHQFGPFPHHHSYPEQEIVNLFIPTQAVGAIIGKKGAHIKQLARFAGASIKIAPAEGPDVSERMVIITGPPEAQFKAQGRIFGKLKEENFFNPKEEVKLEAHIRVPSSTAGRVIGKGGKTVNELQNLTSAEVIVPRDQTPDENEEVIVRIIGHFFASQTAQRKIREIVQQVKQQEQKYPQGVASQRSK

AAUAAA
Kd [1]: 4390 nM

CUGUCCU
Kd [2]: 924 nM | Kd [3]: 25.2 nM | Kd [4]: 58.7 nM

UAUUUAU
Kd [5]: 1320 nM | Kd [6]: 27.4 nM | Kd [7]: 52.9 nM | Kd [8]: 16.8 nM

Reference: the supplement of paper PMC6379048
